# Reference: PMC6347194, “Protein refolding based on high hydrostatic pressure and alkaline pH: Application on a recombinant dengue virus NS1 protein” (PLoS ONE, 2019)
# Legend:
# [1] = biological target: the molecule itself; experiment: SEC; Superdex 200 10/300, elution in 50 mM CAPS pH 11.0; supernatant of NS1-IBs subjected to 2.4 kbar/0.4 kbar at pH 11.0, before dialysis
# [2] = biological target: the molecule itself; experiment: SEC
protein,measurement,setting,value
"dengue virus (DENV) non-structural protein 1 (NS1), recombinant, refolded from inclusion bodies (natural protein, also called DENV NS1) DSGCVVSWKNKELKCGSGIFITDNVHTWTEQYKFQPESPSKLASAIQKAHEEGICGIRSVTRLENLMWKQITPELNHILSENEVKLTIMTGDIKGIMQAGKRSLQPQPTELKYSWKTWGKAKMLSTESHNQTFLIDGPETAECPNTNRAWNSLEVEDYGFGVFTTNIWLKLREKQDVFCDSKLMSAAIKDNRAVHADMGYWIESALNDTWKIEKASFIEVKSCHWPKSHTLWSNGVLESEMIIPKNFAGPVSQHNYRPGYHTQTAGPWHLGKLEMDFDFCEGTTVVVTEDCGNRGPSLRTTTASGKLITEWCCRSCTLPPLRYRGEDGCWYGMEIRPLKEKEENLVNSLVTA",stoichiometry N,[1],2
same,stoichiometry N,[2],3
